From the nanobody polyreactivity screen of Harvey et al. (2022)

experiment: yeast display, Sf9 membrane polyspecificity reagent, FACS + sequencing; frameworks hold sequencing errors
Summary of the method: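 After 36–48 hours of galactose induction, yeast (Saccharomyces cerevisiae BJ5465) displaying a synthetic nanobody library were stained at 4 °C for 1 hour with 10% biotinylated, detergent-solubilized Sf9 membrane reagent. Streptavidin microbeads enriched the stained cells before FACS sorting into low and high (top ~1%) gates on anti-HA and streptavidin fluorescence. Each clone's polyreactivity label reflects its gate of origin.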

Sequence	polyreactivity (PSR sort gate)
QVQLVESGGGLVQAGGSLRLSCAASGSTFSTNAMGWYRQAPGKERELVAAISRSGGSTYYADSVKGRFTISRDNAKNTVYLQMNSLKPEDTAVYYCARYSYRGTNVRYDYWGQGTQVTVSS	high polyreactivity
QVQLVESGGGLVQAGGSLRLSCAASGSTFSTNAMGWYRQAPGKERELVAAISWSDDDTYYADSVKGRFTISRDNAKNTVYLQMNSLKPEDTGVYYCAAEGVGPARVYQGGEYNYWGQGTQVTVSS	low polyreactivity
QVQLVESGGGLVQAGGSLRLSCAASGSTFSTNAMGWYRQAPGKERELVASITRSGGSTYYADSVKGRFTISRDNAKNTFYLLMNSLKPEDTAVYYCNADGYYDYDYGYWGQGTQVTVSS	low polyreactivity
QVQLVESGGGLVQAGGSLRLSCAASGSTFSTNVMGWYRQAPGKERELVAAISTIGGSTYADSVKGRFTISRDNAKNTVYLQMNSQKPEDTAVYYCAKRSRYPYYPYGYWGQGTQVTVSS	high polyreactivity
QVQLVESGGGLVQAGGSLRLSCAASGSTFSVNAMGRYRQATGKERELVATISGGITNYADSVKGRFTISRDNAKNTVYLQMNSLKPEDTAVYYCNTAYRHIWVTWAAYDYWGQGTQVTVSS	low polyreactivity
QVQLVESGGGLVQAGGSLRLSCAASGSTFSVNAMGWYRQAPGKERELVAAISSTGSTKYADSVKGRFTISRDNAKNTVYLQIISLKPEDTAVYCAASNADYEYYPFSDWYFSPYDYWGQGTQVTVSS	low polyreactivity
QVQLVESGGGLVQAGGSLRLSCAASGSTFSVYAMGLYRQAPGKERELVPAITWSGGSTYYADSVKGRFTISRDNAKNTVYLQMNSLKPEDTAVYYCNAERWLATPTVPWYLYNYWGQGTQVTVSS	low polyreactivity
QVQLVESGGGLVQAGGSLRLSCAASGSTFSWNTMGWYRQAPGIERELVAAINSGGSTYYADSVKGRFTISRDNAKNSVYLQMNSLKPEDTAVYYCAADWRGSYLYGYYYWGQGTQVTVSS	low polyreactivity
QVQLVESGGGLVQAGGSLRLSCAASGSTFSWYAMGWYRQAPGKERELVASISFSGGDTSYADSVKGRFTISRDNAKNTVYLQMNSLKPEDTAVYYCGKEYKYETDTKFDYWGQGTQVTVSS	low polyreactivity
QVQLVESGGGLVQAGGSLRLSCAASGSTFSYNAMGWSRQAPGKERELVAAISSAISTNYADSVKGRFTISRDNAKNTVYLQLNSLKPDDTAVYYCNKVPDFVFLISYQLYYTKRLGYWGQGTQVNVSS	low polyreactivity
QVQLVESGGGLVQAGGSLRLSCAASGSTFSYNAMGWYRPAPGKERELVAAISGSGGTTYYADSVKGRFTISRDNAKNTVYLQMNSLKPEDTAVYYCNAYVRRTRDYDYWGQGTQVTVSS	high polyreactivity
QVQLVESGGGLVQAGGSLRLSCAASGSTFSYNAMGWYRQAPGKERELVAAINLRGGNTYYADSVKGRFTNSRDNAKNTVYLQMNSLKPEDTAVYYCARTRRHSQTFDYWGQGTQVIVSS	high polyreactivity
QVQLVESGGGLVQAGGSLRLSCAASGSTFSYNAMGWYRQAPGKERELVAAISGSGGTTYYSDSVKGRFTISRDNAKNTVYLQMNSLKPEDTAVYYCAARPFRSWRYDYWGQGTQVTVSS	low polyreactivity
QVQLVESGGGLVQAGGSLRLSCAASGSTFSYNAMGWYRQAPGKERELVAAISRGDVSTYYADSVKGRFTISRDNAKNTVYLQMNSLKPEDTAVYYCADYWYGSQYKWRYDYWGQGTQVTVSS	low polyreactivity
QVQLVESGGGLVQAGGSLRLSCAASGSTFSYNAMGWYRQAPGKERELVAAISRSGGSTYYADSVKGRFTISRDNAKNTVYLQIKSLKPEFTAVYYFAADSPYGYYEGDYWGQGTQVTVSS	low polyreactivity
QVQLVESGGGLVQAGGSLRLSCAASGSTFSYNAMGWYRQAPGKERELVAAITSGSSTNYADSVKGRFTISRDNAKNTVYLQMNSLKPEDTAVYYCAADGYQDKYYWLENWVGYWGQGTQVTVSS	low polyreactivity
QVQLVESGGGLVQAGGSLRLSCAASGSTFSYNAMGWYRQAPGKERELVATITTGGRTSYADSVKGRFTISRDNAKNTVYLQMNSLKPEDTAVYYCAAVGRFSSRPRVVYYGYDYWGQGTQVTVSS	low polyreactivity
QVQLVESGGGLVQAGGSLRLSCAASGSTFSYNAMGWYRQAPGKVRELVASINSRGGTTYYADSVKGRFTISRDNAKNTVYLQMNSLKPEDTAVYYCATDVYRLGEYDYWGQGTQVTVSS	low polyreactivity
QVQLVESGGGLVQAGGSLRLSCAASGSTFSYYAMGWYRQAPGKERDLVAAISTDGGSTYYADSVKGRFTISRDNAKNTVYLQMNSLKPEDTAVYYCAALVGYYQYVWDLTYTVVEYNYWGQGTQVNVSS	low polyreactivity
QVQLVESGGGLVQAGGSLRLSCAASGSTFSYYAMGWYRQAPGKERELVAAISSRGGSTYYADSVKGRFTISRDNAMNNVYLQMNSLKPEDTAVYFCNADHQFRSSVSGDHDFWGQGTQVTVSS	high polyreactivity

Sequence	polyreactivity (PSR sort gate)
QVQLVESGGGLVQAGGSLRLSCAASGSTFSYYAMGWYRQAPGKERELVAAITYSVGSTYYADSVKGRFTISRDNAKNTVYLQMNSLKPEDTAVYYCNKRYYYSRANYPYDYWGQGTQVTVSS	low polyreactivity
QVQLVESGGGLVQAGGSLRLSCAASGSTFSYYTMGWYRQAPGKERELVAAISFSGGSTYYADSVKGRFTISRDNAKNTVYLQMNSLKPEDTAVYYCAAKGYVGRYDYWGQGTQVTVSS	high polyreactivity
QVQLVESGGGLVQAGGSLRLSCAASGSTFTANAMGWYRQAPGKERELVASISARDGSTYADSVKGRFTISRDNAKKTVYLQMNSLKPEDTAVYYCNAAYFHIFPYDYDYWGQGTQVTVSS	low polyreactivity
QVQLVESGGGLVQAGGSLRLSCAASGSTFTDYDMGWYRQAPGKERELVAAITSGGSTNYADSVKGRCTISRDNAKNTVYLQMNRLKPEDTAVYYWAAADADSKYDYWGQGTQVTVSS	low polyreactivity
QVQLVESGGGLVQAGGSLRLSCAASGSTFTDYDMGWYRQAPGKERELVAAITSGGSTNYADSVKGRITISRDNAKNTVYLQMNSLKPEDTAVYYCAAADADRKYDYWGQGTQVTVSS	low polyreactivity
QVQLVESGGGLVQAGGSLRLSCAASGSTFTDYDMGWYRQAPGTERELVAAITSGCSTNYADSVKGRFTISRDNAKNTVYLQMNSLKPEDTAVYYCAAADADRKYDYWGQGTQVTVTS	low polyreactivity
QVQLVESGGGLVQAGGSLRLSCAASGSTFTEYAMGWYRQAPGKERELVAAITNSGSSTNYEDSVKGRFTISRDNAKNTVYLQMNSLKPEDTAVYYCNASSYPWEYYYLYYGYDYWGQGTQVTVSS	low polyreactivity
QVQLVESGGGLVQAGGSLRLSCAASGSTFTFYAMGSYRQAPGKERELGAAINGRGGSTYYADSVKGRFTISRDNANNTVYLQMNSLKPEDTADYYCATRLYYSVRYNMGYWGQGTQVTVSS	high polyreactivity
QVQLVESGGGLVQAGGSLRLSCAASGSTFTGNAMGWYRQAPGKERELVAAITDRGGSTYADSVKGRFTISRDNAKNTVYLQMNSLKPEDTAVYYCATRRDLHDRYEYDYWGQGTQVTVSS	low polyreactivity
QVQLVESGGGLVQAGGSLRLSCAASGSTFTGNAMGWYRQAPGKERELVASINGSSGSTYYADSVKGRFTISRDNAKNTVYLQMNSLKPEDTAVYYCAKDSFLHFPLVGWVGLEYWGQGTQVTVSS	low polyreactivity
QVQLVESGGGLVQAGGSLRLSCAASGSTFTGNAMGWYRQAPGKERELVASISTGGSTNYADSVKGRFTISRDNAKNTVYLQMNSLKPEDTAVYYCATDYCFKDSVVDFDYWGQGTQVTVSS	low polyreactivity
QVQLVESGGGLVQAGGSLRLSCAASGSTFTGYAMAWYRQAPGKERELVAAISSDGGSTYYADSVKGRFTMSRDNAKNTVYLQMNSLKPEDTAVYYCAALVYVSGYGYYYWGQGTQVTVSS	high polyreactivity
QVQLVESGGGLVQAGGSLRLSCAASGSTFTGYAMGWYRPAPGKESELVAAISISGGRTFYADSVKGRFTISRDNAKNTVYLQMNSLKPEDTSVYYCAVYRRGGVEAFLYWGQGTQVTVSS	high polyreactivity
QVQLVESGGGLVQAGGSLRLSCAASGSTFTGYAMGWYRQAPGKERELVAAISRSGGSTYYADSVKGRFTISRDNAKNTVYLQMNSLKPEDTAVYYCYVDPSARRYVYWGQGTQVTVSS	high polyreactivity
QVQLVESGGGLVQAGGSLRLSCAASGSTFTGYAMGWYRQAPGKERELVAAISRSVGRTYYADSVKGRFTISRDNAKNTVYLQMNSLKPEETAVYYCAADVFLTGSRNYYWGQGTQVTVSS	high polyreactivity
QVQLVESGGGLVQAGGSLRLSCAASGSTFTGYTKGWYRQAPGKERELVAAITYRGGSTYYADSVKGRFTISRDNAKNTVYLQMNSLKPEDTAVYYCAAVPEYYEYSPYDYWGQGTQVTVSS	low polyreactivity
QVQLVESGGGLVQAGGSLRLSCAASGSTFTHYDMGWYRQAPGKERELVADISRSGGRTYYADSVKGRFTISRDNAKNTVYLQMNSLKPEDTAVYYCATEFEHINGVNQGPYIDDYSWGQGSQVTVSS	low polyreactivity
QVQLVESGGGLVQAGGSLRLSCAASGSTFTINVMGSYRQAPGKERELVAAINGGGRTNYADSVKGRFTISRDNAKNTVYLQMNSLKPEDTAVYYCAADGLSNVRQMDYWGQGTQVTVSS	low polyreactivity
QVQLVESGGGLVQAGGSLRLSCAASGSTFTIYAMGWYRQAPGKERELVAAITWNGGSTYYADSVKGRFTISRDNAKKTVYLQMNRLKPEDTAVYYCAAKFRYQYVRVAREYYYWGQGTQVTVSS	high polyreactivity
QVQLVESGGGLVQAGGSLRLSCAASGSTFTIYAMGWYRQAPGKERELVAGITRVGSTNYADSVKGRFTISRDNAKYTVYLQMNSLKPEDTAVYYCARRDLFQAGYEYWGQGTQVTVSS	low polyreactivity
